The results in this text go back to patent US20140314780A1, “Compositions Using Antibodies Directed to GPNMB and Uses Thereof” (Celldex Therapeutics, Inc., priority 2008, published 2014).

The target in the test is T1, GPNMB (Homo sapiens, UniProt Q14956).
T1 construct: V5His; made in house
T1 sequence (Q14956 23-492): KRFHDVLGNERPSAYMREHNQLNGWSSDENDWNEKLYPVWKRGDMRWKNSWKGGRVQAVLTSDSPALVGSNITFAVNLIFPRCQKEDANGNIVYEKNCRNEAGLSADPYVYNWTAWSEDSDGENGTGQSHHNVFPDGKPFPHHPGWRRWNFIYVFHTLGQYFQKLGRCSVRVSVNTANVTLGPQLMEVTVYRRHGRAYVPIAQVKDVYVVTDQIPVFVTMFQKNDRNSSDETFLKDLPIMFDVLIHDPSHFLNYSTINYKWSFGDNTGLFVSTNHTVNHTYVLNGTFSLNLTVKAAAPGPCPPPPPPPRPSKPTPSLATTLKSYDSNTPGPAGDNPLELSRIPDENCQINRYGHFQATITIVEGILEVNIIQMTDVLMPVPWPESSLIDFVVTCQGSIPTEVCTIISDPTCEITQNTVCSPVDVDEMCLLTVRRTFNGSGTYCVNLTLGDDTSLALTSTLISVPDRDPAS
Briefly: Epitope binning of anti-GPNMB antibodies (competitive binding). As to conditions: six anti-GPNMB antibodies, three bins. The source says:
Certain antibodies, described herein were binned in accordance with the protocol described in U.S. Patent Application Publication No. 20030157730. […] Competitive binding by antibodies from […] supports antibody specificity for similar or adjacent epitopes. Non competitive binding supports antibody specificity for unique epitopes.
Three bins were created to further test the binding of six anti-GPNMB antibodies. Bin 1 included GPNMB antibodies (1.2.1), (1.10.1), and (2.22.1). Bin 2 included GPNMB antibodies (2.3.1) and (1.15.1), and Bin 3 included GPNMB antibody (2.10.1). The results of the binning assays are provided below in Tables 4 and 5.

B1: Mab2.22.1: human anti-GPNMB antibody; VH SEQ ID NO: 164, VL SEQ ID NO: 173 (antibody, listed as Homo sapiens, V domains shown)
VH: QVQLEQSGPGLVKPSQNLSLTCTVSGGSISSGGYFWSWIRQHPGKGLEWIGYIYYSGNTYYNPSLKSRVTISVDTSKNQFSLKLSSVTAADTAVYYCARDYYYDTSGFSYRYDWYYGMDVWGQGTTVTVSSA
VL: DIQLTQSPSSLSASVGDRVTITCRASQGIRNDLGWYQQKPGKAPKRLIYAASSLQNGVPSRFSGSGSGTEFTLTISSLQPEDFATYYCLQHNTYPAFGQGTKVEIKR
As for B1, the epitope bin result is recorded as “Bin 1”.
